{"source": "patent US20210347873A1", "about": "(SHANGHAI PHARMAEXPLORER, published 2021)", "key": {"human APRIL protein [1]": {"target": "T1, human APRIL protein (human, UniProt O75888 105-250, limits assumed)", "T1 construct": "Bought protein; also called recombinant APRIL protein", "T1 sequence (looked up)": "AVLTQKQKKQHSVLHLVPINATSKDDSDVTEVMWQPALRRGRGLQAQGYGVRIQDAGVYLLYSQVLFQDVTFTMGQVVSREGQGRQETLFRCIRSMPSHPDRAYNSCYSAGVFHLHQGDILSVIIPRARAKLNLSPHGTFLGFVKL", "assay": "ELISA, coated APRIL; antibody 0 nM (blank)", "experimental": "(§1) To test whether the BLyS antibody cross-reacted with human APRIL protein, APRIL protein (purchased from R & D Systems) was first diluted to a final concentration of 1.0 μg/mL with PBS, and then 50 μL of which per well was aliquoted into a 96-well ELISA plate, and the plate was subsequently sealed with plastic film and incubated at 4° C. overnight. On the next day the plate was rinsed four times with the plate washing buffer [PBS buffer containing 0.0500 (v/v) Tween20] and a blocking solution [PBS buffer containing 0.05 (v/v) Tween20 and 1 (w/w) BSA] was added, then the protein was blocked at 37° C. for 2 hours. The blocking solution was removed and 100 μL per well of the lead antibodies prepared in Embodiment 1 and 2 were added in. After incubation for 1 hour at 37° C., the plate was rinsed four times with the plate washing buffer [PBS buffer containing 0.05 (v/v) Tween20]. HRP-labeled (horseradish peroxidase) secondary antibody (purchased from Sigma) was added in and incubated at 37° C. for 1 hour. The plate was then rinsed four times with the plate washing buffer [PBS buffer containing 0.050 (v/v) Tween20]. 100 μL of TMB substrate was aliquoted into each well and after incubation at room temperature for 5 minutes, 100 μL of stop solution (1.0 N HCl) was aliquoted into each well. A₄₅₀ₙₘ values were read via an ELISA plate reader (SpectraMax M5e purchased from Molecular Devices) and the results were shown in FIGS. 6A-6B and Table 11. […] As used herein, the IgG control is human IgG and the data in the table is GD number at 450 nm."}, "human APRIL protein [2]": {"target": "T1, human APRIL protein", "assay": "ELISA, coated APRIL; antibody 0.107 nM", "experimental": "as §1"}, "human APRIL protein [3]": {"target": "T1, human APRIL protein", "assay": "ELISA, coated APRIL; antibody 0.534 nM", "experimental": "as §1"}, "human APRIL protein [4]": {"target": "T1, human APRIL protein", "assay": "ELISA, coated APRIL; antibody 66.7 nM", "experimental": "as §1"}, "human APRIL protein [5]": {"target": "T1, human APRIL protein", "assay": "ELISA, coated APRIL; antibody 0.00427 nM", "experimental": "as §1"}, "human APRIL protein [6]": {"target": "T1, human APRIL protein", "assay": "ELISA, coated APRIL; antibody 2.67 nM", "experimental": "as §1"}, "human APRIL protein [7]": {"target": "T1, human APRIL protein", "assay": "ELISA, coated APRIL; antibody 13.3 nM", "experimental": "as §1"}, "human APRIL protein [8]": {"target": "T1, human APRIL protein", "assay": "ELISA, coated APRIL; antibody 0.0213 nM", "experimental": "as §1"}}}
{"binder": "97E7B3F2 (antibody, V domains shown) VH: EVQLQQSGPELVKSGASVKISCKASGYTFTDHKMHWVKQSHGKSLEWIGYISPYNGGTGYNQKFKSKVTLTVDISSSTAYMELRSLTSEDSAVYYCARWGFYDVMDSWGQGTSVTVSS VL: DVLLTQTPLSLPVSLGDQASISCRSSQTIVHIIGDTYLEWYLQKPGQSPKLLIYKVSNRFSGVPDRFSGSGAGTDFTLKISRVEAEDLGVYYCFQGSHVPRTFGGGTKLEIK", "values": [{"measurement": "OD450 nm", "setting": "human APRIL protein [1]", "result": 0.0533}, {"measurement": "OD450 nm", "setting": "human APRIL protein [2]", "result": 0.0705}, {"measurement": "OD450 nm", "setting": "human APRIL protein [3]", "result": 0.0556}, {"measurement": "OD450 nm", "setting": "human APRIL protein [4]", "result": 0.62}, {"measurement": "OD450 nm", "setting": "human APRIL protein [5]", "result": 0.0535}, {"measurement": "OD450 nm", "setting": "human APRIL protein [6]", "result": 0.0707}, {"measurement": "OD450 nm", "setting": "human APRIL protein [7]", "result": 0.182}, {"measurement": "OD450 nm", "setting": "human APRIL protein [8]", "result": 0.0537}]}
